Our source for the EC50 values is patent US20240254232A1 (SUNSHINE GUOJIAN PHARMACEUTICAL SHANGHAI, published 2024).

The target in assay [1] is T1, LAG-3 extracellular segment recombinant protein with polyhistidine tag (LAG3-His) (UniProt P18627 23-450, limits assumed).
T1 construct: extracellular domain
T1 sequence (looked up): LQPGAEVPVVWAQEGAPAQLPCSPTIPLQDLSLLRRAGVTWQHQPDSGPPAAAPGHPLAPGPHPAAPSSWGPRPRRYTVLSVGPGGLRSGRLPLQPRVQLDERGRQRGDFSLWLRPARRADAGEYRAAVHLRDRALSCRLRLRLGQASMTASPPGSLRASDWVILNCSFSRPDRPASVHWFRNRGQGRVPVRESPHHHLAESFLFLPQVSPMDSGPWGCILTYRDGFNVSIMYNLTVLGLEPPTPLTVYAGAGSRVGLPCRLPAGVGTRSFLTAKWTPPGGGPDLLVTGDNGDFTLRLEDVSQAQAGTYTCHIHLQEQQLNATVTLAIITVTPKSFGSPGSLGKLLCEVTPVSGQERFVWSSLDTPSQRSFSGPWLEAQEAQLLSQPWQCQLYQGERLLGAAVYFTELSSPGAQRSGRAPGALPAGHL
In words: ELISA, LAG3-His coated at 10 ng/well, HRP anti-human Fc detection. How it is done:
(§1) The ELISA detection method used in the following embodiments is described as follows: the corresponding recombinant protein is coated on the microplate, and the microplate is closed with PBST containing 1% bovine serum albumin (PBST is a phosphate buffer containing 0.05% Tween-20). The antibody to be tested was sequentially diluted and then transferred to the above recombinant protein-coated microplates, incubated at room temperature for half an hour and then washed, appropriately diluted HRP (Horseradish Peroxidase)-labeled goat anti-human antibody (Fc specific, purchased from Sigma) was incubated at room temperature for half an hour and then washed, and 100 μl of TMB (3,3′,5,5′-Tetramethylbenzidine) was added to each well.
(§2) Hereby, HER2 extracellular segment recombinant protein (referred to as HER2-His, purchased from Sino Biological Inc.), PD-1 extracellular segment recombinant protein (referred to as PD1-His, purchased from Sino Biological Inc.), and LAG-3 extracellular segment recombinant protein (referred to as LAG3-His, purchased from ACROBiosystems) with polyhistidine tags were coated on microplates at concentrations of 20 ng/well, 20 ng/well, and 10 ng/well, respectively.

The target of assay [2] is T2, PD-1 extracellular segment recombinant protein with polyhistidine tag (PD1-His) (UniProt Q15116 25-170, limits assumed).
T2 construct: extracellular domain
T2 sequence (Q15116 25-170 limits assumed): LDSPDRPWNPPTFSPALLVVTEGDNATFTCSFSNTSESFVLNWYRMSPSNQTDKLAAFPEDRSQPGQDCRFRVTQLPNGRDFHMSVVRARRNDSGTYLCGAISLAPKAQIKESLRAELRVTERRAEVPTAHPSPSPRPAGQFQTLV
In words: ELISA, PD1-His coated at 20 ng/well, HRP anti-human Fc detection. As for the experimental part:
as §1, §2

In assay [3] the target is T3, HER2 extracellular segment recombinant protein with polyhistidine tag (HER2-His) (UniProt P04626 23-652, limits assumed).
T3 construct: extracellular domain
Briefly: ELISA, HER2-His coated at 20 ng/well, HRP anti-human Fc detection. How it is done: as §1, §2

B1: 609-302-134-IgG4, hexavalent trispecific antibody against PD-1, HER-2 and LAG-3 (antibody)
heavy: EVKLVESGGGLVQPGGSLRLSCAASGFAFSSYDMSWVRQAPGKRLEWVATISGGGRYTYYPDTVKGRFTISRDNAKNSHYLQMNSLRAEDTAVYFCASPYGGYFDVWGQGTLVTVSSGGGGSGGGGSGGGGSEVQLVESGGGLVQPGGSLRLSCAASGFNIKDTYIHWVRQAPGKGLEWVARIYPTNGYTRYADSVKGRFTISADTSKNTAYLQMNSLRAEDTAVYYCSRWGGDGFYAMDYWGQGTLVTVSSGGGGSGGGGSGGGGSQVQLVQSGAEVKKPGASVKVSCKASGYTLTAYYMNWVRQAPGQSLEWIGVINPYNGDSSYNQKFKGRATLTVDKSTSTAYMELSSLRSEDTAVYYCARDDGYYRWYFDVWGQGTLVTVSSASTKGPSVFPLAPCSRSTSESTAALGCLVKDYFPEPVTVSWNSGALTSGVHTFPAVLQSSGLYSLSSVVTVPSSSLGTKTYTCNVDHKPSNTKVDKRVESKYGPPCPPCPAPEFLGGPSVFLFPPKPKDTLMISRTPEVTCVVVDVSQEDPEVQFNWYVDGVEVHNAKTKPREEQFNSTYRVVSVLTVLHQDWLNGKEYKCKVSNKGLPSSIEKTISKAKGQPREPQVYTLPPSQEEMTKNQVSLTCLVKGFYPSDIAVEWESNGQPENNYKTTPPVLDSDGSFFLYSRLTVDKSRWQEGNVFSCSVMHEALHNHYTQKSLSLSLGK
light 1: not shown
light 2: DIQMTQSPSSLSASVGDRVTITCRASQDIGSRLNWLQQKPGKSIKRLIYATSSLESGVPSRFSGSRSGSDYTLTISSLQPEDFATYYCLQSGSSPPTFGQGTKVEIKRTVAAPSVFIFPPSDEQLKSGTASVVCLLNNFYPREAKVQWKVDNALQSGNSQESVTEQDSKDSTYSLSSTLTLSKADYEKHKVYACEVTHQGLSSPVTKSFNRGEC
On to B1, for which the EC50 in assay [1] was 0.26 nM; in assay [2] it was 0.125 nM.

B2: 609-302-(105CC)-134-IgG4, hexavalent trispecific antibody against PD-1, HER-2 and LAG-3 (antibody)
heavy: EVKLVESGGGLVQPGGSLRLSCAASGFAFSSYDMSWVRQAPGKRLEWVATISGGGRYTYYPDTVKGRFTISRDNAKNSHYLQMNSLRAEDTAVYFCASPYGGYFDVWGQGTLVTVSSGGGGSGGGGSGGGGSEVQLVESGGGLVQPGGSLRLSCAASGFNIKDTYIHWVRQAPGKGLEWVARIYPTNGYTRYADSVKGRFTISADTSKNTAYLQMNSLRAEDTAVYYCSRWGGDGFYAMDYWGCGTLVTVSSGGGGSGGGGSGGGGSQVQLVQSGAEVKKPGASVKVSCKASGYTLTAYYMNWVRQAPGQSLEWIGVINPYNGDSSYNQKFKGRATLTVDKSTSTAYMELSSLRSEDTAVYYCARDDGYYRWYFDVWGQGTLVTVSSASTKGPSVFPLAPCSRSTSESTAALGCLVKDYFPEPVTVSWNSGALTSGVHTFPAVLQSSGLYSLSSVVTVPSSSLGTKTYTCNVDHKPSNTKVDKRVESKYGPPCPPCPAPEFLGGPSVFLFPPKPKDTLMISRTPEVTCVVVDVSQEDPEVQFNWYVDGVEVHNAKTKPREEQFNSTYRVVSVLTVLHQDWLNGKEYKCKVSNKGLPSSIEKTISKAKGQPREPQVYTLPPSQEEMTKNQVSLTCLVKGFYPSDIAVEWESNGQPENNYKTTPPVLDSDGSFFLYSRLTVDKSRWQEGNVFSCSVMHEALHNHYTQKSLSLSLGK
light 1: not shown
light 2: DIQMTQSPSSLSASVGDRVTITCRASQDIGSRLNWLQQKPGKSIKRLIYATSSLESGVPSRFSGSRSGSDYTLTISSLQPEDFATYYCLQSGSSPPTFGQGTKVEIKRTVAAPSVFIFPPSDEQLKSGTASVVCLLNNFYPREAKVQWKVDNALQSGNSQESVTEQDSKDSTYSLSSTLTLSKADYEKHKVYACEVTHQGLSSPVTKSFNRGEC
For the molecule B2, the EC50 was found to be 0.286 nM in assay [1], 0.104 nM in assay [2] and 0.42 nM in assay [3].

B3: 609-302-(44CC)-134-IgG4, hexavalent trispecific antibody against PD-1, HER-2 and LAG-3 (antibody)
heavy: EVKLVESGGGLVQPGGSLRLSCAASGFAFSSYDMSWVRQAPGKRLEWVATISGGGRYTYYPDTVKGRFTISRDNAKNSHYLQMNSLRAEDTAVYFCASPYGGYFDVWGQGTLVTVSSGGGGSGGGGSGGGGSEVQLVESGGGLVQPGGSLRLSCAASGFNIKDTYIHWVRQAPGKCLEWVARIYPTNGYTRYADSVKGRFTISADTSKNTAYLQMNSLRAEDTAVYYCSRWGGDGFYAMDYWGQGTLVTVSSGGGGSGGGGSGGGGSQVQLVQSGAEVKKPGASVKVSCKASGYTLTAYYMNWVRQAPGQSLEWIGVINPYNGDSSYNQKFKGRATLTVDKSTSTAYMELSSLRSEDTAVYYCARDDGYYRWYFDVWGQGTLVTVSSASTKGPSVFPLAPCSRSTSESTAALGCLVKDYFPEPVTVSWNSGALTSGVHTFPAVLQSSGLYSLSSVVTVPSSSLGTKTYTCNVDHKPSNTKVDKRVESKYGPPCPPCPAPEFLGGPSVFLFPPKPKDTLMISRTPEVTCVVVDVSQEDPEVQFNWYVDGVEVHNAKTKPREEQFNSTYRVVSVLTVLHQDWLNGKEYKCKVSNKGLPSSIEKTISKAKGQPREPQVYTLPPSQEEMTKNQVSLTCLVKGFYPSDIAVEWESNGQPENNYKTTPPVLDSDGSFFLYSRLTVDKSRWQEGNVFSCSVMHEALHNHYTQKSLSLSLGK
light 1: not shown
light 2: DIQMTQSPSSLSASVGDRVTITCRASQDIGSRLNWLQQKPGKSIKRLIYATSSLESGVPSRFSGSRSGSDYTLTISSLQPEDFATYYCLQSGSSPPTFGQGTKVEIKRTVAAPSVFIFPPSDEQLKSGTASVVCLLNNFYPREAKVQWKVDNALQSGNSQESVTEQDSKDSTYSLSSTLTLSKADYEKHKVYACEVTHQGLSSPVTKSFNRGEC
In the case of B3, the 50% effective concentration (EC50) in assay [1] turned out to be 0.226 nM; in assay [2], 0.0911 nM; in assay [3] it was 0.355 nM.

B4: 134-IgG4 (134 Hu IgG4-C91S), humanized monoclonal antibody against human LAG-3 (antibody, V domains shown)
VH: QVQLVQSGAEVKKPGASVKVSCKASGYTLTAYYMNWVRQAPGQSLEWIGVINPYNGDSSYNQKFKGRATLTVDKSTSTAYMELSSLRSEDTAVYYCARDDGYYRWYFDVWGQGTLVTVSS
VL: DIQMTQSPSSLSASVGDRVTITCRASQDIGSRLNWLQQKPGKSIKRLIYATSSLESGVPSRFSGSRSGSDYTLTISSLQPEDFATYYCLQSGSSPPTFGQGTKVEIKR
notes: also called Anti-LAG-3 antibody
Turning to B4, in assay [1], the EC50 was 0.122 nM.
